Values quoted from earlier work, collected in publication PMC4456024.

Biological target: cTnI147-163 (Homo sapiens)
Assay: NMR titration

cTnC (cNTnC) 1-89 (from UniProt P63316)
Kd: 150 µM
